From paper PMC11574045, “A cofactor-induced repressive type of transcription factor condensation can be induced by synthetic peptides to suppress tumorigenesis” (The EMBO Journal, 2024)

B1: TRPS1 (protein, UniProt Q9UHF7 1-1281, looked up)
Zinc finger transcription …: MVRKKNPPLRNVASEGEGQILEPIGTESKVSGKNKEFSADQMSENTDQSDAAELNHKEEHSLHVQDPSSSSKKDLKSAVLSEKAGFNYESPSKGGNFPSFPHDEVTDRNMLAFSSPAAGGVCEPLKSPQRAEADDPQDMACTPSGDSLETKEDQKMSPKATEETGQAQSGQANCQGLSPVSVASKNPQVPSDGGVRLNKSKTDLLVNDNPDPAPLSPELQDFKCNICGYGYYGNDPTDLIKHFRKYHLGLHNRTRQDAELDSKILALHNMVQFSHSKDFQKVNRSVFSGVLQDINSSRPVLLNGTYDVQVTSGGTFIGIGRKTPDCQGNTKYFRCKFCNFTYMGNSSTELEQHFLQTHPNKIKASLPSSEVAKPSEKNSNKSIPALQSSDSGDLGKWQDKITVKAGDDTPVGYSVPIKPLDSSRQNGTEATSYYWCKFCSFSCESSSSLKLLEHYGKQHGAVQSGGLNPELNDKLSRGSVINQNDLAKSSEGETMTKTDKSSSGAKKKDFSSKGAEDNMVTSYNCQFCDFRYSKSHGPDVIVVGPLLRHYQQLHNIHKCTIKHCPFCPRGLCSPEKHLGEITYPFACRKSNCSHCALLLLHLSPGAAGSSRVKHQCHQCSFTTPDVDVLLFHYESVHESQASDVKQEANHLQGSDGQQSVKESKEHSCTKCDFITQVEEEISRHYRRAHSCYKCRQCSFTAADTQSLLEHFNTVHCQEQDITTANGEEDGHAISTIKEEPKIDFRVYNLLTPDSKMGEPVSESVVKREKLEEKDGLKEKVWTESSSDDLRNVTWRGADILRGSPSYTQASLGLLTPVSGTQEQTKTLRDSPNVEAAHLARPIYGLAVETKGFLQGAPAGGEKSGALPQQYPASGENKSKDESQSLLRRRRGSGVFCANCLTTKTSLWRKNANGGYVCNACGLYQKLHSTPRPLNIIKQNNGEQIIRRRTRKRLNPEALQAEQLNKQQRGSNEEQVNGSPLERRSEDHLTESHQREIPLPSLSKYEAQGSLTKSHSAQQPVLVSQTLDIHKRMQPLHIQIKSPQESTGDPGNSSSVSEGKGSSERGSPIEKYMRPAKHPNYSPPGSPIEKYQYPLFGLPFVHNDFQSEADWLRFWSKYKLSVPGNPHYLSHVPGLPNPCQNYVPYPTFNLPPHFSAVGSDNDIPLDLAIKHSRPGPTANGASKEKTKAPPNVKNEGPLNVVKTEKVDRSTQDELSTKCVHCGIVFLDEVMYALHMSCHGDSGPFQCSICQHLCTDKYDFTTHIQRGLHRNNAQVEKNGKPKE
B2: TSC22D2 (protein, UniProt O75157 1-780, looked up)
TSC22 domain family protein 2: MSKMPAKKKSCFQITSVTTAQVATSITEDTESLDDPDESRTEDVSSEIFDVSRATDYGPEEVCERSSSEETLNNVGDAETPGTVSPNLLLDGQLAAAAAAPANGGGVVSARSVSGALASTLAAAATSAPAPGAPGGPQLAGSSAGPVTAAPSQPPTTCSSRFRVIKLDHGSGEPYRRGRWTCMEYYERDSDSSVLTRSGDCIRHSSTFDQTAERDSGLGATGGSVVVVVASMQGAHGPESGTDSSLTAVSQLPPSEKMSQPTPAQPQSFSVGQPQPPPPPVGGAVAQSSAPLPPFPGAATGPQPMMAAAQPSQPQGAGPGGQTLPPTNVTLAQPAMSLPPQPGPAVGAPAAQQPQQFAYPQPQIPPGHLLPVQPSGQSEYLQQHVAGLQPPSPAQPSSTGAAASPATAATLPVGTGQNASSVGAQLMGASSQPSEAMAPRTGPAQGGQVAPCQPTGVPPATVGGVVQPCLGPAGAGQPQSVPPPQMGGSGPLSAVPGGPHAVVPGVPNVPAAVPAPSVPSVSTTSVTMPNVPAPLAQSQQLSSHTPVSRSSSIIQHVGLPLAPGTHSAPTSLPQSDLSQFQTQTQPLVGQVDDTRRKSEPLPQPPLSLIAENKPVVKPPVADSLANPLQLTPMNSLATSVFSIAIPVDGDEDRNPSTAFYQAFHLNTLKESKSLWDSASGGGVVAIDNKIEQAMDLVKSHLMYAVREEVEVLKEQIKELVERNSLLERENALLKSLSSNDQLSQLPTQQANPGSTSQQQAVIAQPPQPTQPPQQPNVSSA
B3: TSG101 (protein, UniProt Q99816 2-390, looked up)
Tumor susceptibility gene 101 …: AVSESQLKKMVSKYKYRDLTVRETVNVITLYKDLKPVLDSYVFNDGSSRELMNLTGTIPVPYRGNTYNIPICLWLLDTYPYNPPICFVKPTSSMTIKTGKHVDANGKIYLPYLHEWKHPQSDLLGLIQVMIVVFGDEPPVFSRPISASYPPYQATGPPNTSYMPGMPGGISPYPSGYPPNPSGYPGCPYPPGGPYPATTSSQYPSQPPVTTVGPSRDGTISEDTIRASLISAVSDKLRWRMKEEMDRAQAELNALKRTEEDLKKGHQKLEEMVTRLDQEVAEVDKNIELLKKKDEELSSALEKMENQSENNDIDEVIIPTAPLYKQILNLYAEENAIEDTIFYLGEALRRGVIDLDVFLKHVRLLSRKQFQLRALMQKARKTAGLSDLY
B4: TSHZ1 (protein, UniProt Q6ZSZ6 1-1077, looked up)
Teashirt homolog 1: MPRRKQQAPRRSAAYVPEEELKAAEIDEEHVEDDGLSLDIQESEYMCNEETEIKEAQSYQNSPVSSATNQDAGYGSPFSESSDQLAHFKGSSSREEKEDPQCPDSVSYPQDSLAQIKAVYANLFSESCWSSLALDLKKSGSTTSTNDASQKESSAPTPTPPTCPVSTTGPTTSTPSTSCSSSTSHSSTTSTSSSSGYDWHQAALAKTLQQTSSYGLLPEPSLFSTVQLYRQNNKLYGSVFTGASKFRCKDCSAAYDTLVELTVHMNETGHYRDDNRDKDSEKTKRWSKPRKRSLMEMEGKEDAQKVLKCMYCGHSFESLQDLSVHMIKTKHYQKVPLKEPVPAITKLVPSTKKRALQDLAPPCSPEPAGMAAEVALSESAKDQKAANPYVTPNNRYGYQNGASYTWQFEARKAQILKCMECGSSHDTLQQLTAHMMVTGHFLKVTTSASKKGKQLVLDPVVEEKIQSIPLPPTTHTRLPASSIKKQPDSPAGSTTSEEKKEPEKEKPPVAGDAEKIKEESEDSLEKFEPSTLYPYLREEDLDDSPKGGLDILKSLENTVSTAISKAQNGAPSWGGYPSIHAAYQLPGTVKPLPAAVQSVQVQPSYAGGVKSLSSAEHNALLHSPGSLTPPPHKSNVSAMEELVEKVTGKVNIKKEERPPEKEKSSLAKAASPIAKENKDFPKTEEVSGKPQKKGPEAETGKAKKEGPLDVHTPNGTEPLKAKVTNGCNNLGIIMDHSPEPSFINPLSALQSIMNTHLGKVSKPVSPSLDPLAMLYKISNSMLDKPVYPATPVKQADAIDRYYYENSDQPIDLTKSKNKPLVSSVADSVASPLRESALMDISDMVKNLTGRLTPKSSTPSTVSEKSDADGSSFEEALDELSPVHKRKGRQSNWNPQHLLILQAQFASSLRETTEGKYIMSDLGPQERVHISKFTGLSMTTISHWLANVKYQLRRTGGTKFLKNLDTGHPVFFCNDCASQFRTASTYISHLETHLGFSLKDLSKLPLNQIQEQQNVSKVLTNKTLGPLGATEEDLGSTFQCKLCNRTFASKHAVKLHLSKTHGKSPEDHLIYVTELEKQ
B5: TSHZ2 (protein, UniProt Q9NRE2 1-1034, looked up)
Teashirt homolog 2: MPRRKQQAPKRAAGYAQEEQLKEEEEIKEEEEEEDSGSVAQLQGGNDTGTDEELETGPEQKGCFSYQNSPGSHLSNQDAENESLLSDASDQVSDIKSVCGRDASDKKAHTHVRLPNEAHNCMDKMTAVYANILSDSYWSGLGLGFKLSNSERRNCDTRNGSNKSDFDWHQDALSKSLQQNLPSRSVSKPSLFSSVQLYRQSSKMCGTVFTGASRFRCRQCSAAYDTLVELTVHMNETGHYQDDNRKKDKLRPTSYSKPRKRAFQDMDKEDAQKVLKCMFCGDSFDSLQDLSVHMIKTKHYQKVPLKEPVPTISSKMVTPAKKRVFDVNRPCSPDSTTGSFADSFSSQKNANLQLSSNNRYGYQNGASYTWQFEACKSQILKCMECGSSHDTLQQLTTHMMVTGHFLKVTSSASKKGKQLVLDPLAVEKMQSLSEAPNSDSLAPKPSSNSASDCTASTTELKKESKKERPEETSKDEKVVKSEDYEDPLQKPLDPTIKYQYLREEDLEDGSKGGGDILKSLENTVTTAINKAQNGAPSWSAYPSIHAAYQLSEGTKPPLPMGSQVLQIRPNLTNKLRPIAPKWKVMPLVSMPTHLAPYTQVKKESEDKDEAVKECGKESPHEEASSFSHSEGDSFRKSETPPEAKKTELGPLKEEEKLMKEGSEKEKPQPLEPTSALSNGCALANHAPALPCINPLSALQSVLNNHLGKATEPLRSPSCSSPSSSTISMFHKSNLNVMDKPVLSPASTRSASVSRRYLFENSDQPIDLTKSKSKKAESSQAQSCMSPPQKHALSDIADMVKVLPKATTPKPASSSRVPPMKLEMDVRRFEDVSSEVSTLHKRKGRQSNWNPQHLLILQAQFASSLFQTSEGKYLLSDLGPQERMQISKFTGLSMTTISHWLANVKYQLRKTGGTKFLKNMDKGHPIFYCSDCASQFRTPSTYISHLESHLGFQMKDMTRLSVDQQSKVEQEISRVSSAQRSPETIAAEEDTDSKFKCKLCCRTFVSKHAVKLHLSKTHSKSPEHHSQFVTDVDEE
B6: TULP2 (protein, UniProt O00295 1-520, looked up)
Tubby-related protein 2: MSQDNDTLMRDILGHELAAMRLQKLEQQRRLFEKKQRQKRQELLMVQANPDASPWLWRSCLREERLLGDRGLGNPFLRKKVSEAHLPSGIHSALGTVSCGGDGRGERGLPTPRTEAVFRNLGLQSPFLSWLPDNSDAELEEVSVENGSVSPPPFKQSPRIRRKGWQAHQRPGTRAEGESDSQDMGDAHKSPNMGPNPGMDGDCVYENLAFQKEEDLEKKREASESTGTNSSAAHNEELSKALKGEGGTDSDHMRHEASLAIRSPCPGLEEDMEAYVLRPALPGTMMQCYLTRDKHGVDKGLFPLYYLYLETSDSLQRFLLAGRKRRRSKTSNYLISLDPTHLSRDGDNFVGKVRSNVFSTKFTIFDNGVNPDREHLTRNTARIRQELGAVCYEPNVLGYLGPRKMTVILPGTNSQNQRINVQPLNEQESLLSRYQRGDKQGLLLLHNKTPSWDKENGVYTLNFHGRVTRASVKNFQIVDPKHQEHLVLQFGRVGPDTFTMDFCFPFSPLQAFSICLSSFN
B7: TWIST1 (protein, UniProt Q15672 1-202, looked up)
Twist-related protein 1: MMQDVSSSPVSPADDSLSNSEEEPDRQQPPSGKRGGRKRRSSRRSAGGGAGPGGAAGGGVGGGDEPGSPAQGKRGKKSAGCGGGGGAGGGGGSSSGGGSPQSYEELQTQRVMANVRERQRTQSLNEAFAALRKIIPTLPSDKLSKIQTLKLAARYIDFLYQVLQSDELDSKMASCSYVAHERLSYAFSVWRMEGAWSMSASH
B8: TWIST2 (protein, UniProt Q8WVJ9 1-160, looked up)
Twist-related protein 2: MEEGSSSPVSPVDSLGTSEEELERQPKRFGRKRRYSKKSSEDGSPTPGKRGKKGSPSAQSFEELQSQRILANVRERQRTQSLNEAFAALRKIIPTLPSDKLSKIQTLKLAARYIDFLYQVLQSDEMDNKMTSCSYVAHERLSYAFSVWRMEGAWSMSASH

The molecules below were run on HEK293FT cells transfected with TF library (assay: Screening of TF condensates based on fluorescent puncta). Details: Figure 1B numerical data; TF library screen, one value per transcriptional factor.
Type: cell-based
Outline: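 Condensate formation is scored as Alexa 488-labelled puncta after Flag- or GAL4-tag immunostaining of fixed HEK293FT cells expressing individual TFs, with a 12 h glucose-free or glucose-containing culture preceding fixation.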
With B1 the “Z score of condensed fraction” value was -0.2124.
For B2, the “Z score of condensed fraction” value was -1.109.
B3 was tested, and the “Z score of condensed fraction” value was 0.9844.
B4 was tested, and the “Z score of condensed fraction” value was -1.076.
In the case of B5, the “Z score of condensed fraction” value is reported as -1.212.
In the case of B6, the “Z score of condensed fraction” value is reported as -0.5004.
B7 was tested, and the “Z score of condensed fraction” value was -0.8032.
For B8, the “Z score of condensed fraction” value was -0.4698.
